Data taken from patent publication US8226943B2, “Antibodies to notch receptors” (OncoMed Pharmaceuticals, Inc., priority 2008, dated 2012).
Where two headings read alike, the source gives them in different places.

Columns and labels:
hNotch1 = target: T1, hNotch1 (Homo sapiens, UniProt P46531); assay: Biacore affinity, human Notch1; format: binding; conditions: Table 6, Biacore; read-out: IgG Dissociation Constant (KD) h-Notch1
T1 construct: recombinant human and mouse Notch proteins (EGF10-15 for Notch1, 2, & 4; EGF9-14 for Notch3) were immobilized on a CM5 chip
T1 sequence (P46531 372-601 limits assumed): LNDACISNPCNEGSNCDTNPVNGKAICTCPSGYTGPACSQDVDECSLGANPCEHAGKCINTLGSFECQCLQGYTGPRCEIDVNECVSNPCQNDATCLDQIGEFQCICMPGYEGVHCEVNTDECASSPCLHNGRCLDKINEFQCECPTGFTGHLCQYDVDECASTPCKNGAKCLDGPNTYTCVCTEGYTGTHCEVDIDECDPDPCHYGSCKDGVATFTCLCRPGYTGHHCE
Protocol: (§1) The affinities for human and mouse Notch1, Notch2, Notch3, and Notch4 were determined using a Biacore 2000 instrument. Briefly, recombinant human and mouse Notch proteins (EGF10-15 for Notch1, 2, & 4; EGF9-14 for Notch3) were immobilized on a CM5 chip using standard amine based chemistry (NHS/EDC). For hNotch2, EGF1-12 was also tested for binding. Different antibody concentrations (1-100 nM) were injected over the protein surfaces and kinetic data were collected over time. The data was fit using the simultaneous global fit equation to yield dissociation constants (KD, nM) for each Notch (Table 3).
(§2) The sequences of the heavy chain and light chain are provided in SEQ ID NO: 49 and SEQ ID NO:18, respectively. The heavy chain variable region is provided in SEQ ID NO:50 and the light chain variable region is provide SEQ ID NO:13. The heavy chain CDR3 sequence of 59R5 comprises SIFYTT, SEQ ID NO:51. The other CDR sequences of 59R5 are identical to 59R1. […] Both antibodies bind human and murine Notch2 and Notch3 receptors with sub-nanomolar affinity (see Table 6).

mNotch1 = target: T2, mNotch1 (Mus musculus, UniProt Q01705); assay: Biacore affinity, mouse Notch1; format: binding
T2 construct: recombinant human and mouse Notch proteins (EGF10-15 for Notch1, 2, & 4; EGF9-14 for Notch3) were immobilized on a CM5 chip
T2 sequence (Q01705 372-601 limits assumed): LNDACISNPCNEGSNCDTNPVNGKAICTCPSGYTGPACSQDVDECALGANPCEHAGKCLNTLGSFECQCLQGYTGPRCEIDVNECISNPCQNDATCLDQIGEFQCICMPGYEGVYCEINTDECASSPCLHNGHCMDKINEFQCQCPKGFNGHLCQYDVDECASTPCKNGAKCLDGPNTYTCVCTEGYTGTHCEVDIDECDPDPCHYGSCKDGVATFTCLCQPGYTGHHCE
Protocol: as §1, §2

human Notch1 = target: T3, human Notch1 (Homo sapiens, UniProt P46531); assay: FACS binding to transiently transfected HEK-293 cells, human Notch1
T3 construct: expressed in transfected cells; host or cells: HEK-293, transient, co-transfected with GFP
T3 sequence (P46531 19-2555): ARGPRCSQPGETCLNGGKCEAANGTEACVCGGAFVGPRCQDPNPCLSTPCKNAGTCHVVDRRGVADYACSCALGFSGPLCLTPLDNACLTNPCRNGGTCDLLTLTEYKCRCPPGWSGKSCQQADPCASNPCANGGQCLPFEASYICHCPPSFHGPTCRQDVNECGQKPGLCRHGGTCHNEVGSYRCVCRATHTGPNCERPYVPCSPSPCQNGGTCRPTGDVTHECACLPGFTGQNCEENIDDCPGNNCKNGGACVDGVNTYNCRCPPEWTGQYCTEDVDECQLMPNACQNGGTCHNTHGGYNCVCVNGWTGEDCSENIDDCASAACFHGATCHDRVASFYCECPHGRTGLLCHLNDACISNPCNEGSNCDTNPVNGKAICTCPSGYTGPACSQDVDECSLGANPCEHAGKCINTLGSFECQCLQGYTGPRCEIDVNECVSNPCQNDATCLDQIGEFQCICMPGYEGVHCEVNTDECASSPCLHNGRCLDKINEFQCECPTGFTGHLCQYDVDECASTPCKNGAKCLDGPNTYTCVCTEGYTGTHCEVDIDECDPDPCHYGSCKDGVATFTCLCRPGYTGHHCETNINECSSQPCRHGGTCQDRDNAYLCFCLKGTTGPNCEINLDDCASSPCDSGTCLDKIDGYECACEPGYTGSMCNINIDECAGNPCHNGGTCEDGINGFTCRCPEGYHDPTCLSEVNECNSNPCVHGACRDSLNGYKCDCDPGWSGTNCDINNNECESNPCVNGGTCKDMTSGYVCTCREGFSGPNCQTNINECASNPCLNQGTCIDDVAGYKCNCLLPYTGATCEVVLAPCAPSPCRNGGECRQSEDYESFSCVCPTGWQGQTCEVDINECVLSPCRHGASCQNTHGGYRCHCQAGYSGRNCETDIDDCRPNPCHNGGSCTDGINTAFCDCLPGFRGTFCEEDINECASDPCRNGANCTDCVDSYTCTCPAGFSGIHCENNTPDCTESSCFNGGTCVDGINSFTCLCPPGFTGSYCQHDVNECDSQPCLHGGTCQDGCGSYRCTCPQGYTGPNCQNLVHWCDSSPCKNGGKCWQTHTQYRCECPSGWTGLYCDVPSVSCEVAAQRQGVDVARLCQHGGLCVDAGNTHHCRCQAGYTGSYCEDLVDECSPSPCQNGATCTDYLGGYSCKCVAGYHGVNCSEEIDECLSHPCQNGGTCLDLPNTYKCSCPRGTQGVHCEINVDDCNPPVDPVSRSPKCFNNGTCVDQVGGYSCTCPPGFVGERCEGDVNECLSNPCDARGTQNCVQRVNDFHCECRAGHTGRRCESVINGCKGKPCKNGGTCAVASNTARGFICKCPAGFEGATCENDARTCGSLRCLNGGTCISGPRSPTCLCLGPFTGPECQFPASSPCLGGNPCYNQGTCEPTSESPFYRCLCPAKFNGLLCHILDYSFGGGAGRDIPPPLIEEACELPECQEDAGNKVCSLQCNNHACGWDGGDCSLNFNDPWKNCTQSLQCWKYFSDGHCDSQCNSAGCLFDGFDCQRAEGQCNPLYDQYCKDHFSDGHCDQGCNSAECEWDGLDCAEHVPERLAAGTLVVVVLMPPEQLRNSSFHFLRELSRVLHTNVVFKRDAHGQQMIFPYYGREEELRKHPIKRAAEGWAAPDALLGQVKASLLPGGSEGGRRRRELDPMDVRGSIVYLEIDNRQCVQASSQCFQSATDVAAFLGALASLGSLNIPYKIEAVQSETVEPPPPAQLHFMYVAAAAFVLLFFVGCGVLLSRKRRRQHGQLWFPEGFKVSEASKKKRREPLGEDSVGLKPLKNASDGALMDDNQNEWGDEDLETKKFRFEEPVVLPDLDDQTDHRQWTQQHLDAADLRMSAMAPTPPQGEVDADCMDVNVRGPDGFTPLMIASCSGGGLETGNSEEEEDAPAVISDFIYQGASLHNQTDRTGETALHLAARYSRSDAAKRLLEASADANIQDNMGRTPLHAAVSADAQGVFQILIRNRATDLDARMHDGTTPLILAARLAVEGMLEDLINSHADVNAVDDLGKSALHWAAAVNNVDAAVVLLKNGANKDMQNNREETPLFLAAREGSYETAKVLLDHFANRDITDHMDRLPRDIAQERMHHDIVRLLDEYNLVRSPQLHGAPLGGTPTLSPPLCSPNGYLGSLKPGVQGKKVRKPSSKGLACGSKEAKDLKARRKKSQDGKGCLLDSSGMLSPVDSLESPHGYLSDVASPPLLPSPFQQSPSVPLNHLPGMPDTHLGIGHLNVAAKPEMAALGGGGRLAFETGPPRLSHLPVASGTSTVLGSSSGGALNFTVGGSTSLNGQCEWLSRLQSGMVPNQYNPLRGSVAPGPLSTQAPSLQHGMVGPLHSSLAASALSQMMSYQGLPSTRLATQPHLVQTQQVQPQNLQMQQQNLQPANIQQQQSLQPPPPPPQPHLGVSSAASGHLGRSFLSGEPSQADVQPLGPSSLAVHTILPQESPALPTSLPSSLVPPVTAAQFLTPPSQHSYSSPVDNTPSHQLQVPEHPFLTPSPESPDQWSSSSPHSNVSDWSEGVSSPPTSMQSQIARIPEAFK
Protocol: The ability of the 59R1 IgG2 antibody to cross-react with other Notch receptors was determined by FACS assay using HEK-293 cells transiently transfected with the human Notch1, Notch2, Notch3 or Notch4 expression plasmid and green fluorescent protein (GFP) as a transfection control. GFP positive cells indicated expression of the transgene. The 59R1 IgG2 was added to the cells at 2 μg/ml and detected by PE-conjugated goat anti-human Fc gamma specific (Jackson Immunochemicals). All Notch constructs were full length.
The binding epitope of 59R5 was determined. As was described in Example 3 for analysis of antibody 59R1, several point mutants were created within full-length Notch1, converting residues within EGF10 to the corresponding amino acids in human Notch 2. Mutants in full-length Notch sequences were generated by QuikChange® mutagenesis (Stratagene) and verified by sequencing. HEK 293 cells were transiently transfected with expression vectors encoding human Notch2, human Notch1, or human Notch1 with residues 382-386 mutated to the corresponding human Notch2 residues. Cells were also co-transfected with a plasmid encoding green fluorescent protein (GFP) to mark those cells that received transfected plasmid. […] 59R1 and 59R5 were detected by PE-conjugated goat anti-human Fc gamma specific antibody (Jackson Immunochemicals, #109-116-170). […]

[1] = tested on: Colo-205 colon tumor cells; assay: Colo-205 colon tumor xenograft growth; format: in vivo, mice; conditions: for Colo205 Tumor vol relative to the control group: 15 mg/kg once per week; for growth of Colo205 colon tumors: 15 mg/kg once per week after tumors established
Protocol: In one experiment, the 1×10^7 viable Colo-205 colon tumor cells were injected into 6-8 week-old immunodeficient bg/nu XID female mice on a Swiss CD-1 background. Tumors were allowed to grow to a size of between 65 to 200 mm^3 after which mice were randomized (n=10 per experimental group), and antibodies administration begun. Animals were treated with 15 mg/kg of either control 1B7.11 antibodies or anti-Notch2/3 59R1 antibodies once weekly. Tumor size was measured twice weekly, and tumor volume was calculated as described (see Michieli et al., 2004, Cancer Cell, 6:61-73).
The 59R1 IgG2 antibody was also tested in vivo in the breast tumor xenograft lines OMP-B34, OMP-B39, OMP-B44, PE13, and UM-T1, the pancreas tumor xenograft line OMP-PN8, and the colon tumor xenograft line OMP-C8. These tumor xenograft lines were established by adhering to procedures described in Al-Hajj et al., 2003, Proc. Natl. Acad. Sci. USA, 100:3983-3988. Female NOD/SCID immuno-compromised mice 7-10 weeks old were used for the establishment of the breast tumor xenografts and male NOD/SCID mice were used for the OMP-Pn8 and OMP-C8 tumor-models (Harlan, Indianapolis, Ind.). The 59R1 IgG2 antibody was also tested in vivo in a Colo-205 colon tumor xenograft model. Female immunodeficient bg/nu XID mice on a Swiss CD-1 background were used for the Colo-205 xenograft tumor model. In case of the breast cancer models, slow-releasing estrogen pellets (0.36 mg) had to be implanted. Mice were subcutaneously injected on the right flank with 50,000 (OMP-B34, OMP-B39, OMP-B44, PE13, and UM-T1) or 1×10^7 (Colo-205) viable cells, respectively, in a mixture of PBS (without magnesium or calcium) and Matrigel at a 1:1 ratio. The injected total volume per mouse was 200 μl with 50% being Matrigel. Once the tumor had reached a size between 65-200 mm^3, the mice were randomized. Antibodies were administered weekly and tumors measured twice weekly. LZ1 (a human antibody that recognizes lyzozyme) or 1B711 (a murine IgG1 antibody that recognizes the hapten trinitrophenol) was used as a control antibody for treatment of each tumor type. Tumor volume was calculated as described Al-Hajj et al. (2003). Data are expressed as the mean and the mean±S.E.M. Group means were compared using Student's two-tailed, unpaired t-test. […] All statistical analysis was performed using Microsoft EXCEL and Graph Pad PRISM.
In another embodiment, NOD/SCID mice were injected with Colo205 colon tumor cells. The mice were treated with anti-Notch2/3 antibody 59R1, anti-Notch2/3 antibody 59R5 or control antibody. Antibodies were dosed at 15 mg/kg once per week after tumors had been established.
Tumor volumes and p values for each experiment are shown relative to the control group. The PE13, C28 and Colo205 studies were carried out as described in Example 14. PN8 studies were carried out as described above. For the PN8 experiment, the control is gemcitabine alone and values for 59R1 and 59R5 are the combinations with gemcitabine. Antibodies were dosed once per week at 15 mg/kg for all experiments.

[2] = Table 6, Biacore, read-out: IgG Dissociation Constant (KD) m-Notch1
[3] = established tumors, 15 mg/kg once a week

Kd (hNotch1) [nM]	Kd (mNotch1; Table 3, Biacore, EGF10-15, read-out: Dissociation Constant (KD) mNotch1) [nM]	Kd (mNotch1; [2]) [nM]	binding to full-length human Notch1 (FACS) (human Notch1)	Substance	Colo205 Tumor vol relative to the control group [1]	growth of Colo205 colon tumors [1]	Colo205 tumor growth, combination of 59R1 plus bevacizumab (AVASTIN) versus either alone [1, 3]	Colo205 tumor growth, monotherapy relative to control antibody (LZ1) [1, 3]	Colo-205 tumor growth compared to control ([1]; established tumors, 15 mg/kg once weekly, control 1B7.11)
> 10	> 10	> 10	does not bind significantly	59R1: human IgG2 antibody binding Notch2 and Notch3; heavy and light chain SEQ ID NO:16 and 18; ATCC PTA-9547	0.68	inhibited	even greater inhibition of tumor growth	significantly inhibited growth	significantly reduced
> 10	–	> 10	did not bind	59R5: human antibody that specifically binds human Notch 2 and human Notch 3; heavy and light chain SEQ ID NO:49 and 18; ATCC PTA-10170	0.61	inhibited	–	–	–
